# Measured values published in FireProtDB (doi:10.1006/abbi.1998.1072).
# Several values for one entry are separate records, joined by “and”; a condition that tells them apart may be missing. Equal values may be shown once.
# B1: Inorganic pyrophosphatase wild type, P50308 (protein)
# chain: MKLSPGKNAPDVVNVLVEIPQGSNIKYEYDDEEGVIKVDRVLYTSMNYPFNYGFIPGTLEEDGDPLDVLVITNYQLYPGSVIEVRPIGILYMKDEEGEDAKIVAVPKDKTDPSFSNIKDINDLPQATKNKIVHFFEHYKELEPGKYVKISGWGSATEAKNRIQLAIKRVSGGQ
# B2: Inorganic pyrophosphatase wild type, P38576 (protein)
# chain: MANLKSLPVGDKAPEVVHMVIEVPRGSGNKYEYDPDLGAIKLDRVLPGAQFYPGDYGFIPSTLAEDGDPLDGLVLSTYPLLPGVVVEVRVVGLLLMEDEKGGDAKVIGVVAEDQRLDHIQDIGDVPEGVKQEIQHFFETYKALEAKKGKWVKVTGWRDRKAALEEVRACIARYKG
# B3: Inorganic pyrophosphatase wild type, P0A7A9 (protein)
# chain: MSLLNVPAGKDLPEDIYVVIEIPANADPIKYEIDKESGALFVDRFMSTAMFYPCNYGYINHTLSLDGDPVDVLVPTPYPLQPGSVIRCRPVGVLKMTDEAGEDAKLVAVPHSKLSKEYDHIKDVNDLPELLKAQIAHFFEHYKDLEKGKWVKVEGWENAEAAKAEIVASFERAKNK
# Details: pH 7, reversible: no, whole UniProt chain shown; for denaturant m value / denaturant midpoint (higher = more stable): GdnHCl, Tris-HCl 50 mM; for Tm: Thermal, HEPES 20 mM
# [1] = Sulfolobus acidocaldarius (strain ATCC 33909 / DSM 639 / JCM 8929 / NBRC 15157 / NCIMB 11770), 25 °C, CD
# [2] = Sulfolobus acidocaldarius (strain ATCC 33909 / DSM 639 / JCM 8929 / NBRC 15157 / NCIMB 11770), 25 °C, Fluorescence
# [3] = Sulfolobus acidocaldarius (strain ATCC 33909 / DSM 639 / JCM 8929 / NBRC 15157 / NCIMB 11770), 50 °C, CD
# [4] = Thermus thermophilus (strain ATCC 27634 / DSM 579 / HB8), 25 °C, CD
# [5] = Thermus thermophilus (strain ATCC 27634 / DSM 579 / HB8), 25 °C, Fluorescence
# [6] = Escherichia coli (strain K12), 25 °C, CD
# [7] = Escherichia coli (strain K12), 25 °C, Fluorescence
protein,measurement,setting,value
B1,denaturant m value,[1],5.5 kcal/mol/M
same,denaturant midpoint (higher = more stable),[1],3.1 M
same,denaturant m value,[2],8.13 kcal/mol/M and 6.93 kcal/mol/M and 5.98 kcal/mol/M
same,denaturant midpoint (higher = more stable),[2],3.2 M and 2.9 M and 3.1 M
same,denaturant m value,[3],6.93 kcal/mol/M and 5.74 kcal/mol/M
same,denaturant midpoint (higher = more stable),[3],2.8 M and 2.9 M
B2,denaturant m value,[4],5.74 kcal/mol/M
same,denaturant midpoint (higher = more stable),[4],4.7 M
same,denaturant m value,[5],5.74 kcal/mol/M
same,denaturant midpoint (higher = more stable),[5],5.1 M and 4.7 M
same,Tm,"Thermus thermophilus (strain ATCC 27634 / DSM 579 / HB8), CD, EDTA 5 mM",86 °C
same,Tm,"Thermus thermophilus (strain ATCC 27634 / DSM 579 / HB8), CD",96 °C
B3,denaturant m value,[6],3.35 kcal/mol/M
same,denaturant midpoint (higher = more stable),[6],4.9 M
same,denaturant m value,[7],3.35 kcal/mol/M and 2.63 kcal/mol/M
same,denaturant midpoint (higher = more stable),[7],4.9 M and 4.5 M
same,Tm,"Escherichia coli (strain K12), CD, EDTA 5 mM",58 °C
